In patent US10800847:

How the values were obtained:
[1] = target: HLA-A*8001 (A80) single antigen on Luminex beads (human); test: Luminex single antigen bead assay, regular beads (#7), IVIg 1:8
[2] = target: HLA-A*6802 (A68) single antigen on Luminex beads (human); test: as above
[3] = target: HLA-A*6901 (A69) single antigen on Luminex beads (human); test: as above
[4] = target: HLA-A*7401 (A74) single antigen on Luminex beads (human); test: as above
[5] = target: HLA-A*8001 (A80) single antigen on Luminex beads (human); test: Luminex single antigen bead assay, iBeads (#6), IVIg 1:8
[6] = target: HLA-A*6802 (A68) single antigen on Luminex beads (human); test: as above
[7] = target: HLA-A*6901 (A69) single antigen on Luminex beads (human); test: as above
[8] = target: HLA-A*7401 (A74) single antigen on Luminex beads (human); test: as above
[9] = target: HLA-A*8001 (A80) single antigen on Luminex beads (human); test: Luminex single antigen bead assay, iBeads vs regular beads, IVIg 1:8
[10] = target: HLA-A*6802 (A68) single antigen on Luminex beads (human); test: as above
[11] = target: HLA-A*6901 (A69) single antigen on Luminex beads (human); test: as above
[12] = target: HLA-A*7401 (A74) single antigen on Luminex beads (human); test: as above

MFI [1]: 2700 MFI
MFI [2]: 2060 MFI
MFI [3]: 1880 MFI
MFI [4]: 80 MFI
MFI [5]: 2850 MFI
MFI [6]: 2080 MFI
MFI [7]: 2410 MFI
MFI [8]: 431 MFI
Difference % (iBead MFI against regular bead MFI) [9]: 5%
Difference % (iBead MFI against regular bead MFI) [10]: 1%
Difference % (iBead MFI against regular bead MFI) [11]: 28%
Difference % (iBead MFI against regular bead MFI) [12]: 437%
Substance: IVIg GamaSTAN S/D (Talecris Biotherapeutics, Inc., USA) (antibody)
